Patent publication US20250154287A1

Biological target: CD19 on B cells and plasma cells in PBMCs (human) (UniProt P15391)
Experiment: cell-based or functional assay

CD19 on B cells and plasma cells in PBMCs (human), sequence (P15391 20-556): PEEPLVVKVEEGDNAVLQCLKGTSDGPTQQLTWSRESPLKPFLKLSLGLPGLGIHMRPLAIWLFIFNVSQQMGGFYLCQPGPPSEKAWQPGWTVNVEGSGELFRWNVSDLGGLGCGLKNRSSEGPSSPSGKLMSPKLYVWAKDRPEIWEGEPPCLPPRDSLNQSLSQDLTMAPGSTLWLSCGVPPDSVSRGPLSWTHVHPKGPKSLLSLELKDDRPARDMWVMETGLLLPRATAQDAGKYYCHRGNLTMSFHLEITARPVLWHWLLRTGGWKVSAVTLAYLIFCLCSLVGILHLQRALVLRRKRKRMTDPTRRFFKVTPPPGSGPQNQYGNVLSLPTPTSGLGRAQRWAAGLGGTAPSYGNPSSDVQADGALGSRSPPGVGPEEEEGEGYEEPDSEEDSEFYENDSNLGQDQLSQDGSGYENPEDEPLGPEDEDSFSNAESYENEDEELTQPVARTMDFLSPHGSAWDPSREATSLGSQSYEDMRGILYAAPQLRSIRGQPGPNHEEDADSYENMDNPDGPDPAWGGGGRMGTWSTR

EC50 (nM), reduction in secreted IgA in human PBMC supernatants: 0.0368 nM
reduction of secreted IgA in PBMC supernatants (IgA ELISA): 57%
Substance: CD19-CD3 scFv (InvivoGen, Cat number Bimab-cd19cd3-01)
EC50 (nM), cytotoxicity against IgA^+ CD20^+ B cells by flow cytometry: 0.00325 nM
Top (MFI) as printed, cytotoxicity against IgA^+ CD20^+ B cells by flow cytometry: 92.8
